The record followed here is patent publication US11572568B2, “Regulating alkaloids” (22nd Century Limited, LLC, priority 2006, dated 2023).

One data set concerns NCCCN. The data set is described as follows: purified protein, by the assay type. Conditions: other: substrate of recombinant tobacco MPO1 (GST fusion, purified from E. coli).
The subject of the next data set is NCCCCCN. Description: purified protein, by the assay type. To be noted: other: substrate of recombinant tobacco MPO1 (GST fusion, purified from E. coli).
The target in another data set is T1, Recombinant tobacco MPO1 (Nicotiana tabacum, UniProt A0A1S4BDC4).
T1 sequence (A0A1S4BDC4 1-790): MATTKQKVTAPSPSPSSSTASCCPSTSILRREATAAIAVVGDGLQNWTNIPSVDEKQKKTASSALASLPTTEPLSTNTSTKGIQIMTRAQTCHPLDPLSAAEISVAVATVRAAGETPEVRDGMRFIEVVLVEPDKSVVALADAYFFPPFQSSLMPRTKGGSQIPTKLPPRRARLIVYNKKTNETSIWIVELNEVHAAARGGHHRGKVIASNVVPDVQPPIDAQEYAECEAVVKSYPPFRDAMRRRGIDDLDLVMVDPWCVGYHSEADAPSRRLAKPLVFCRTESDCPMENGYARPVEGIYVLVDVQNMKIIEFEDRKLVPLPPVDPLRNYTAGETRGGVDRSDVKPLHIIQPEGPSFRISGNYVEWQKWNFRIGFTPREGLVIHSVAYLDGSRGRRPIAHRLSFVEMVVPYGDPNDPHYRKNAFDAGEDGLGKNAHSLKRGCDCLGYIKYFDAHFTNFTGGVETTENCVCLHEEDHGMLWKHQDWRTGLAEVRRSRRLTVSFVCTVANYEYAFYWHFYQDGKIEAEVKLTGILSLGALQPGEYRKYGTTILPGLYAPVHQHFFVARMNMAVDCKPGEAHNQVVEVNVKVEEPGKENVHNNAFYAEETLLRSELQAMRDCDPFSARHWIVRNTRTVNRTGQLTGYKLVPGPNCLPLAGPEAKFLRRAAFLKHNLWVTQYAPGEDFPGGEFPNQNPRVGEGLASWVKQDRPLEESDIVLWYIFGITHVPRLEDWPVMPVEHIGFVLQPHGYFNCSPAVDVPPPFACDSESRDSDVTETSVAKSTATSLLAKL
To be noted: for V/K: substrate of recombinant tobacco MPO1. As for the experimental part: The PCR product was first cloned into a pGEM-T Easy vector (Promega), then excised as the EcoRV-Not1 fragment, and finally cloned into the expression vector pGEX-6P (GE Healthcare). The resultant plasmid pGEX-MPO1 was introduced into the E. coli strain Rosetta (DE3) (Novagen). The recombinant bacteria were cultured in LB medium containing 50 μg/ml carbenicillin at 37° C. until the OD600 of the culture reached 0.4, IPTG and CuSO4 were added to the culture to the final concentrations of 0.1 mM and 4 mM, respectively, and the cultures were incubated at 16° C. for 16 h. Bacteria were harvested by centrifugation, suspended in a PBS buffer containing 10 mM DTT and 1 mg/ml lysozyme, incubated at 4° C. for 2 h, and then sonicated for 3 min. After centrifugation of the homogenate, the recombinant MPO1 protein fused to GST was purified from the supernatant by GSTrap HP (GE Healthcare) according to the manufacturer's protocol.

Data set [1] concerns the target T2, Pig kidney diamine oxidase (Sus scrofa, UniProt Q9TRC7).
T2 sequence (Q9TRC7 25-755): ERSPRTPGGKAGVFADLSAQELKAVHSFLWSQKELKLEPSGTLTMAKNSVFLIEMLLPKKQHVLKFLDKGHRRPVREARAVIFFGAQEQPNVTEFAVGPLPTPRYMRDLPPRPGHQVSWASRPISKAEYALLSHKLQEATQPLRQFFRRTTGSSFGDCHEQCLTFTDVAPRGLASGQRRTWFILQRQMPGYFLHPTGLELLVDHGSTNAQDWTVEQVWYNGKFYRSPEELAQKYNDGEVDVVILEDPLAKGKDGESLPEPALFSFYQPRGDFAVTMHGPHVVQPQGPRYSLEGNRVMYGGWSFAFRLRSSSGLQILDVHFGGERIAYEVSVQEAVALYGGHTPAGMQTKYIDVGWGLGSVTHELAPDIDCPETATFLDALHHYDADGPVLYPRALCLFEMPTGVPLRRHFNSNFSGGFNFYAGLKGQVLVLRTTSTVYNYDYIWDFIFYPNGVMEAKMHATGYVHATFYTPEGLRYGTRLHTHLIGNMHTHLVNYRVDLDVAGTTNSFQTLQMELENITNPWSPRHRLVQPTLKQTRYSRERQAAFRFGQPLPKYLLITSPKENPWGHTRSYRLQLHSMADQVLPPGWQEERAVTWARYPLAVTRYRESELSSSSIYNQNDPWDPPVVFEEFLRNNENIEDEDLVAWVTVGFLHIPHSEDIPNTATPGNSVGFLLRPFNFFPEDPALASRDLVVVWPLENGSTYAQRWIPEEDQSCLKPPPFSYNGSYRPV
Conditions: in words.

Substrate in data set [2]: NCCCCCN
The data set is described as follows: purified protein, by the assay type. Conditions: other: substrate of purified pig kidney diamine oxidase (Sigma).

Substrate in data set [3]: NCCCCN
Description: purified protein, by the assay type. Conditions: other: substrate of purified pig kidney diamine oxidase (Sigma).

Substrate in data set [4]: CNCCCCN
Description: purified protein, by the assay type. To be noted: other: substrate of purified pig kidney diamine oxidase (Sigma).

By Km is commonly meant the concentration of substrate that gives half-maximal velocity.

Take “Recombinant tobacco MPO1 (Nicotiana tabacum)”: the values for the Km in the data set with NCCCN and with NCCCCCN were 158 ± 100 µM and 362 ± 320 µM, respectively.

As for `CCCCN` [n-Butylamine], at Recombinant tobacco MPO1 (substrate of recombinant tobacco MPO1 (GST fusion, purified from E. coli)), the Km was 249 ± 180 µM. Turning to `NCCCCN` [Putrescine], the substrate preference result in data set [1] was “preferred putrescine over N-methylputrescine”. Further, the V/K on Recombinant tobacco MPO1 came to 3600. For the molecule `CNCCCN` [N-Methyl-1,3-diaminopropane], on Recombinant tobacco MPO1, the V/K is given as 13000.

B1: Pig kidney diamine oxidase (Sus scrofa) (protein)
chain: ERSPRTPGGKAGVFADLSAQELKAVHSFLWSQKELKLEPSGTLTMAKNSVFLIEMLLPKKQHVLKFLDKGHRRPVREARAVIFFGAQEQPNVTEFAVGPLPTPRYMRDLPPRPGHQVSWASRPISKAEYALLSHKLQEATQPLRQFFRRTTGSSFGDCHEQCLTFTDVAPRGLASGQRRTWFILQRQMPGYFLHPTGLELLVDHGSTNAQDWTVEQVWYNGKFYRSPEELAQKYNDGEVDVVILEDPLAKGKDGESLPEPALFSFYQPRGDFAVTMHGPHVVQPQGPRYSLEGNRVMYGGWSFAFRLRSSSGLQILDVHFGGERIAYEVSVQEAVALYGGHTPAGMQTKYIDVGWGLGSVTHELAPDIDCPETATFLDALHHYDADGPVLYPRALCLFEMPTGVPLRRHFNSNFSGGFNFYAGLKGQVLVLRTTSTVYNYDYIWDFIFYPNGVMEAKMHATGYVHATFYTPEGLRYGTRLHTHLIGNMHTHLVNYRVDLDVAGTTNSFQTLQMELENITNPWSPRHRLVQPTLKQTRYSRERQAAFRFGQPLPKYLLITSPKENPWGHTRSYRLQLHSMADQVLPPGWQEERAVTWARYPLAVTRYRESELSSSSIYNQNDPWDPPVVFEEFLRNNENIEDEDLVAWVTVGFLHIPHSEDIPNTATPGNSVGFLLRPFNFFPEDPALASRDLVVVWPLENGSTYAQRWIPEEDQSCLKPPPFSYNGSYRPV
Turning to B1, the results for the Km in data set [2], in data set [3] and in data set [4] were 915 ± 420 µM, 228 ± 90 µM and 657 ± 240 µM, respectively.
